Experimental data taken from the nanobody polyreactivity screen of Harvey et al. (2022).

Assay: yeast display, Sf9 membrane polyspecificity reagent, FACS + sequencing; frameworks hold sequencing errors
Procedure, shortened: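 Nanobodies came from a synthetic yeast display library in Saccharomyces cerevisiae BJ5465, induced with galactose for 36–48 hours and stained for 1 hour at 4 °C with 10% biotinylated, detergent-solubilized Sf9 membrane reagent. Cells were enriched on streptavidin microbeads and then FACS-sorted, with low and high (top ~1%) gates set on anti-HA fluorescence for expression and streptavidin fluorescence for reagent binding. Each polyreactivity label reflects the gate a clone came from. Genes were amplified by colony PCR, sequenced by MiSeq 2 × 250 and filtered by CDR length.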

Sequence	polyreactivity (PSR sort gate)
QVQLVESGGGLVQAGGSLRLSCAASGFTFYYNAMGWYRQAPGKERELVASITRSGGRTYYADSVKGRFTISRDNAMNTVYLKMNSLKPEDTAVYYCARRYPRGYYWGQGTQVTVSS	high polyreactivity
QVQLVESGGGLVQAGGSLRLSCAASGFTFYYNAMGWYRQAQGKERELVAAMSRSGGRTYYADSVKGRFTISRDNAKNTVYLQMNSLKPEDTAVYYCNRRTRPDGGESDYWGQGTLVTVSS	high polyreactivity
QVQLVESGGGLVQAGGSLRLSCAASGFTFYYYAMGWSRQAPGKERELVASISKRGGTYYADSVKGRFTISRDNAKNTVYLQMNSLKPEDTAVYYCAAGIPRQAYKFYWGQGTQVTVSS	high polyreactivity
QVQLVESGGGLVQAGGSLRLSCAASGFTFYYYAMGWYRPAPGKERELVAGITGSGGRTYYADSVKGRFTISRDNAKITVYLQMNSLKPEDTAVYYSNARSLWYDYWGQGTQVTVSS	high polyreactivity
QVQLVESGGGLVQAGGSLRLSCAASGFTFYYYAMGWYRQAPGKERELVAAISISGASTYYADSVKGRFTISRDNAKNTVYLQMNSLKPEETAVDYCAKRTKGYTYHHEYGYWGQGTQVTVSS	low polyreactivity
QVQLVESGGGLVQAGGSLRLSCAASGFTFYYYAMGWYRQAPGKERELVAAISRSGGSTYYADSVKGRFTISRDNAKNTVYLQMNSLKPEDTAVYYCAARRLVGAERPGYDYWGQGTQVTVSS	high polyreactivity
QVQLVESGGGLVQAGGSLRLSCAASGFTFYYYAMGWYRQAPGKERELVAAISTRDGNTYYADSVKGRFTISRDNAKNTVYLQMNSLKPEDTAVYYCAADYFRYYPYDYSGQGTQVTVSS	low polyreactivity
QVQLVESGGGLVQAGGSLRLSCAASGFTFYYYAMGWYRQAPGKERELVAAITWSGDSTNYADSVKGRFTISRDNAKNTVYLQMNSLKPEDTAVYYCATESYDSYGLYDYWGQGTQVTVSS	low polyreactivity
QVQLVESGGGLVQAGGSLRLSCAASGFTFYYYAMGWYRQSPGKERELVAAISWNGGRTYYADSVKGRFTISRDTAKNNVYLQMNSLKPEDTAVYYCDTGYPIDLGREFDYWGQGIQVTVSS	high polyreactivity
QVQLVESGGGLVQAGGSLRLSCAASGFTFYYYDMGWYRQAPGKERELVAAITTGGSTKYADSVKGRFTISRDNAKNTVYLQMNSLKPEDTAVYYCNADDSVYVFSKYDYWGQGTQVTVSS	high polyreactivity
QVQLVESGGGLVQAGGSLRLSCAASGFTFYYYTMGGSRQAPGKERELVAAITSRGGNTYYADSVKGRFTISRDYAKNTVYLQMNSLNPEDTAVYYCAACRFSSRGYGYWGQGTQVTVSS	high polyreactivity
QVQLVESGGGLVQAGGSLRLSCAASGFTFYYYTMGRYRQAPGKEIELLADISSGDRTYYADSVKGRFTISRDNAKNTVYLQMNSLKPEDTAVYYCAAPAKYYTRFGHYNLNQDYDSWGQGTQVTVSS	low polyreactivity
QVQLVESGGGLVQAGGSLRLSCAASGFTIAQNVMGWYRQAPGKERELVAAISVSGGSTYYADSVKGRFTISRDNAKNTVYLQMNSLKPEDTAVYYCNAVAGVTKRVDLSRSGYWGLGTQVTVSS	high polyreactivity
QVQLVESGGGLVQAGGSLRLSCAASGFTIASNAMGWYRQAPGKERELVAAIRRSGSRTYYADSVKGRFTISRDNAKNTVYLQMNSLKPEDTAVYYCAVVSPRQSYYYWGQGTQVTVSS	high polyreactivity
QVQLVESGGGLVQAGGSLRLSCAASGFTIDSYAMGWYRQAPGTERELVAAISYRGGTTYYADSVKGRFTISRDNAKNTVYLQMNSLKPEDTAVYYCNRMWKYGFNYWGQGTQVTVSA	high polyreactivity
QVQLVESGGGLVQAGGSLRLSCAASGFTIFIYAMGWYRQAPGKEREFVAAITGSGGSTYYADSVKGRFTISRDNAKNTVYLQMNSLKPEDTAVYYCAAESEYVYWYYVDYDYWGQGTQVTVSS	high polyreactivity
QVQLVESGGGLVQAGGSLRLSCAASGFTIGANTMGWYRQAPGKERELVAAISASGGSTYYADSVKGRFTISRDNAKNTVYLQMNSLKPEDTAVYYCAARRYPGRTATYYSWGQGTQVTVSS	high polyreactivity
QVQLVESGGGLVQAGGSLRLSCAASGFTIGHYAMGWYRQAPGKERELVAAISSGDRTYFADSVKGRFTISRDNAKNTFYLQMNSLKPEDTAVYYCNAVYYSWAQSARFDYWGQGTQVTVSS	low polyreactivity
QVQLVESGGGLVQAGGSLRLSCAASGFTIGRYDMGWYRQAPGKERELVAAISWSGGSTYYADSVKGRFTISRDNAKNTVYLQMNSLKPEDTAVYYCNAAYYGYENLSKRGYWGQGTQVTVSS	high polyreactivity
QVQLVESGGGLVQAGGSLRLSCAASGFTIGRYTMGWYRQAPGKERELVAAISWSGGSTYYADSVKGRFTISRDNAKNTVYLQMNSLKPEDTAVYYCAKVFRGGRGDYWGQGTQVTVSS	high polyreactivity
QVQLVESGGGLVQAGGSLRLSCAASGFTIGYKVMGWYRQAPGKERELVATISWNGARTYYADSVKGRFTISRDNAKNTVYLQMNSLKPEDTAVYYCAARRYYRGEYDYWGQGTQVTVSS	low polyreactivity
QVQLVESGGGLVQAGGSLRLSCAASGFTIHYNAMGWYRQAPGKERELVATISKSAGITSYADSVKGRFTISRDNAKNTVYLLMNSLKPEDTAVYYCAADKSYRRVYYWGQGTQVTVSS	low polyreactivity

Sequence	polyreactivity (PSR sort gate)
QVQLVESGGGLVQAGGSLRLSCAASGFTIQPYTMGWYRQATGKERELVAAISKSGGSTYYADSVKGRFTISRDNAKNTVYLQMHSLKPEDTAVYYCAAVGWWGTSDYWGQGTQVTVSS	high polyreactivity
QVQLVESGGGLVQAGGSLRLSCAASGFTIRSYVMGWYRQAPGKEREFVAAISYRGGGTNYADSVKGRFTISRDNAKNTVYLQMNSLKPEDTAVYYCNARSGSSKSGYYNWGQGTQVTVSS	high polyreactivity
QVQLVESGGGLVQAGGSLRLSCAASGFTISAYAMGWYRQAPGKERELVAAITSGGGSTRYADSVKGRFTISRDNAKNTVYLQMNSLKPEDTAVYYCAARNHRYKFNYWGQGTQVTVSS	high polyreactivity
QVQLVESGGGLVQAGGSLRLSCAASGFTITDYAMGWYRQAPGKVRELVAAITWSGGSTYYADSVKGRFTLSRDNAKNTVYLQMNSLKPEDTAVYYCNKVTEGLKMDYWGQGTQVTVSS	low polyreactivity
QVQLVESGGGLVQAGGSLRLSCAASGFTIWSYAMGWYRQAPGKERELVAAINYRGTSTYYADSVKGRFTISRDNAKNTVYLQMHSLKPEDTAVYYCAARYYTWQRPTYDYWGQGTQVTVSS	high polyreactivity
QVQLVESGGGLVQAGGSLRLSCAASGFTIYKNAMAWYRQAPGKERELVAAISGRGGSTTYADSVKGRFTISRDNAKNTVYLQMNSLKPEDTAVYYCAARFTYSYPLFGSWGQGTQVTVSS	high polyreactivity
QVQLVESGGGLVQAGGSLRLSCAASGFTIYRYALGGYRPAPGKERELVAAISKSGVSTYYADSVKGRFTISRDNAKNTVYLLMNSLKPEDTAVYYCAVSLTYRWISFDYWGQGTQVTVSS	high polyreactivity
QVQLVESGGGLVQAGGSLRLSCAASGFTIYWYTMVWYRQAPGKERELVAAISRRGGRTYYADSVKGRFTISRDNAKNTVYLQMNSLKPEDTAVYYCAADGTSPVDMNYWGQGTQVTVSS	high polyreactivity
QVQLVESGGGLVQAGGSLRLSCAASGFTIYYYAMGWYRQAPGKERELVASISWSGGSTNYADSVKGRFTISRDNAKNTVYLQMNRLKPEDTAVYYCNTAGPYRRDYWGQGTQVTVSS	high polyreactivity
QVQLVESGGGLVQAGGSLRLSCAASGFTLADNTMGWYRQAPGKEMELVAAITSGASTYYADSVKGRFTISRDNAKNTVYLQMNSLKPEDTAVYYCAALYYWLSGYDYWGQGTQVTVSS	low polyreactivity
QVQLVESGGGLVQAGGSLRLSCAASGFTLAYYAMGWYRQAPGKERELVAAITADTGTTYYADSVKGRFTISRDNAKNTVYLQMNSLKPEDTAVYYCATRDVFYEDDYWGQGTQVTVSS	high polyreactivity
QVQLVESGGGLVQAGGSLRLSCAASGFTLAYYAMGWYRQAPGKERELVATISRRGGSTNYADSVKGRFTISRDNAKNTVYLQMNSLKPVDTAVYYCARTLYRGKSYHGHSKYDYWGQGTQVTVSS	high polyreactivity
QVQLVESGGGLVQAGGSLRLSCAASGFTLDDNGMGWYRQAPGKERELVASITWSGGSTYYADSVKGRFTISRDNAKNTVYLQMNSLKPEDTAVYYCNVGDPIGGFLSYWGGDYWGQGTQVTVSS	low polyreactivity
QVQLVESGGGLVQAGGSLRLSCAASGFTLDVNAMGLYRHAPGKERELVATISWGGASRYYADSVKGRFTISRDNAKNTVYLQMNRLKPEDTAVFYCAAQFYYPDDKGGYDYWGQGTQVTVSS	low polyreactivity
QVQLVESGGGLVQAGGSLRLSCAASGFTLDWYAKGWYRQAPGKERELVAAISSSGRTNYADSVKGRFTISRDNAKNTVYLQMNSLKPEDTAVYYCNRDYPYIWHKGARYWHENDYWGQGTQVTVTS	low polyreactivity
QVQLVESGGGLVQAGGSLRLSCAASGFTLDWYAMGWYRQAPGKERELVAAIWSAGTTYYADSVKGRFTISRDNAKNTVYLQMNSLKPEDTAVYYCATVSDYDFGLYDYWGQGTQVTVSS	low polyreactivity
QVQLVESGGGLVQAGGSLRLSCAASGFTLEDYTMGWYRQAPGKERELVARITSGGSTNYADSVKGRFTISRDNAKNTVYLQMNSLKPEDTAVYYCNARYAWINMDYWGQGTQVTVSS	low polyreactivity
QVQLVESGGGLVQAGGSLRLSCAASGFTLEFSAMGWYRQAPGKERELVASISSGGRTNYADSVKGRFTISRDNAKNTVYLQMYSLKPVDTAVYYCAAEYRSWGRYRYRFNYWGQGTQVTVSS	high polyreactivity
QVQLVESGGGLVQAGGSLRLSCAASGFTLFGYAMGWYRQAPGKERELVAAITSGDGRTYYADSVKGRFTISRDNAKNTVYLQMNSLKPEDTAVYYCAATRYSSYYYVRHDHWGQGTQVTVSS	low polyreactivity
QVQLVESGGGLVQAGGSLRLSCAASGFTLGDNAMGWSRQAPGKERELVAAISGGGSSTYYADSVKGRFTISRDNAKNTVYLQMNSLKPEDTAVYYCAADYYFSTYYSRYYFWGQGTQVTVSS	low polyreactivity
QVQLVESGGGLVQAGGSLRLSCAASGFTLGFYAMGWYRQAPGKESELVAAINWRGGSTYYADSVKGRFTISRDNAKNTVYLQMNSLKPEDTAVYYCNARWARGRYAQYVGLDREYDYWGQGTQVTVSS	high polyreactivity
